Results on 1 sequence are retold here after article PMC9135449.

This data set concerns the target T1, HP1043 (Helicobacter pylori 26695?) (UniProt O25684).
T1 sequence: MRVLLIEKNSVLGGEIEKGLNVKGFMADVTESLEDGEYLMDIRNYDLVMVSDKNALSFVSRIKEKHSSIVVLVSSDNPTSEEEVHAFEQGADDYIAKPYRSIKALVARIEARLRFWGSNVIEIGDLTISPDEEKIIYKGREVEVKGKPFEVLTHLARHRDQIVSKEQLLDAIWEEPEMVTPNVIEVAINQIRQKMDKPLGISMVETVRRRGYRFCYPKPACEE
Briefly: EMSA. The note with it: 10 mM Tris-HCl pH 7.5, 40 mM KCl, 100 ug/ml BSA, 1 mM DTT, 5% glycerol, 25 ul, room temperature 30 min; 6% native PAGE in 45 mM Tris/45 mM orthoboric acid …. (In general: In EMSA bound probe runs differently from free probe, usually more slowly.)

As for “GCCAAAACGCCTAAAGCCACAATAACCTTTTTCATCGTTTGTCTCCTCTACTTATCAAAATGATCTTAAAATGATACAATTACAAGTTTAAGTTTTGCTTAAAAAATGAAGTGAAAATAAGAGAAATAAATATGATTTTATACATTCATATCCCCTTTTGTGAAAATAAATGCGGTTATTGCGCTTTCAA (double strand) [Php1227 190-bp promoter probe]”, the binding entry is “binds”.
